Data taken from US20190002562A1 (INTERVET, published 2019).

T1: HIS-tagged canine PD-1 ECD protein (canine)
T1 construct: also called PD-1 HIS; canine PD-1 ECD-HIS tagged protein; not shown: HIS tag
T1 chain: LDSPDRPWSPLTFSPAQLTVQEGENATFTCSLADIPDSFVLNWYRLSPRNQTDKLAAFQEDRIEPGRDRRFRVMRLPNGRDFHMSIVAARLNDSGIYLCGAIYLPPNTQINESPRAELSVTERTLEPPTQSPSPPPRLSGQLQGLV


How the values were obtained:
[1] = target: T1, HIS-tagged canine PD-1 ECD protein; test: ELISA on the extracellular domain of canine PD-1
[2] = target: T2, recombinant human CD64 protein (R&D systems) (human, UniProt P12314 16-288); test: ELISA: antibody captured on PD-1 HIS, recombinant human CD64 added
T2 construct: Bought protein; also called FcγRI; FcRγI
Experimental: Binding to FcRγI is a measure of the ability of an antibody to mediate ADCC. In order to assess this property for the caninized antibodies an assay to measure binding of caninized antibodies to FcγRI was conducted as follows: Coat 96-well plates with 100 μl per well of 2.5 μg/mL PD-1 HIS. Incubate at 2-7° C. overnight. Equilibrate the plates to room temp for 15 minutes. Wash plates 3× with phosphate buffered saline containing 0.05% Tween® 20 (PBST) and then block the wells using 200 μL/well of 5% NFDM (Non Fat Dried Milk). Incubate for 60 minutes at 36-38° C. Wash 3× with PBST. Make 2-fold dilution of antibodies starting at 1 μg/mL in 5% NFDM. Add 100 μL/well of diluted antibodies. Incubate for 60 minutes at 36-38° C. Wash 6× with PBST. Add 100 μL/well of recombinant human CD64 protein (R&D systems) diluted to 1 μg/mL. Incubate for 60 minutes at 36-38° C. Wash 6× with PBST. Add 100 μL/well biotinylated-anti-CD64 antibody (R&D systems) diluted to 1:3000. Incubate for 60 minutes at 36-38° C. Wash 6× with PBST. Add 100 μL/well Streptavidin-HRP antibody (R&D systems) diluted to 1:7500. Incubate for 60 minutes at 36-38° C. Wash 6× with PBST. Add 100 μL/well TMB substrate. Incubate for 10 minutes at 15-30° C. Read plates using ELISA plate reader at 450-540 nm.

T2 sequence (P12314 16-288 limits assumed): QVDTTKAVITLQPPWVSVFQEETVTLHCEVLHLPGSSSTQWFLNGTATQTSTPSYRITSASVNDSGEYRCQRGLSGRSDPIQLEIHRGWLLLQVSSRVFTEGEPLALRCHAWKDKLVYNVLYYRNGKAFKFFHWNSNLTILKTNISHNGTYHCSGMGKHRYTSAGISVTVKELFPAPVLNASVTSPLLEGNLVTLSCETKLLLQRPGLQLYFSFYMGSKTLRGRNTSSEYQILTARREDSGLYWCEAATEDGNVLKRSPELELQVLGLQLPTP

EC50 (read off the curve) [1]	binding result [2]	Binder
~0.1 nM	–	3B6 VH3 IgGB / VL3 (antibody, V domains shown, copies: 2 + 2) VH: EVQLVQSGGDLVKPGGSVRLSCVASGYTFTTYGMSWVRQAPGKGLQWMGWINIYSGIPTYADDFKGRFTFSLDTAKNTAYLQLNSLRAEDTAVYYCTRFDGPDYWGQGTLVTVSS VL: DIVMTQTPLSLSVSPGEPASMSCKSSQSLLNSVNQKNYLAWYRQKPGQSPQVLVYFASARVSGVPDRFIGSGSGTDFTLRISRVEADDLGVYYCQQYFSTPLTFGQGTKLELKR
–	binds	can2H9 ADCC mut-2 VH4/VL3 (antibody, also called can2H9 VH4 IgGB ADCC (mut-2)/VL3; YZZ1058/Mut-2) heavy: EVQLVQSGGDLVKPGGSVRLSCVASGFNIKNTYMHWVRQAPGKGLQWIGRIAPANVDTKYAPKFQGKATISADTAKNTAYMQLNSLRAEDTAVYYCVLIYYDYDGDIDVWGQGTLVTVSSASTTAPSVFPLAPSCGSTSGSTVALACLVSGYFPEPVTVSWNSGSLTSGVHTFPSVLQSSGLYSLSSMVTVPSSRWPSETFTCNVAHPASKTKVDKPVPKRENGRVPRPPDCPKCPAPEMLGGPSVFIFPPKPKDTLLIARTPEVTCVVVDLDPEDPEVQISWFVDGKQMQTAKTQPREEQFAGTYRVVSVLPIGHQDWLKGKQFTCKVNNKALPSPIERTISKARGQAHQPSVYVLPPSREELSKNTVSLTCLIKDFFPPDIDVEWQSNGQQEPESKYRTTPPQLDEDGSYFLYSKLSVDKSRWQRGDTFICAVMHEALHNHYTQESLSHSPGK light: DIVMTQTPLSLSVSLGEPASISCHASQNINVWLSWYRQKPGQIPQLLIYKASHLHTGVPDRFSGSGSGTDFTLRISRVEADDAGVYYCQQGQSWPLTFGQGTKVEIKRNDAQPAVYLFQPSPDQLHTGSASVVCLLNSFYPKDINVKWKVDGVIQDTGIQESVTEQDSKDSTYSLSSTLTMSSTEYLSHELYSCEITHKSLPSTLIKSFQRSECQRVD
~0.3 nM	no binding	can2H9 ADCC (1062) VH4/VL3 (antibody, also called YZZ1062) heavy: EVQLVQSGGDLVKPGGSVRLSCVASGFNIKNTYMHWVRQAPGKGLQWIGRIAPANVDTKYAPKFQGKATISADTAKNTAYMQLNSLRAEDTAVYYCVLIYYDYDGDIDVWGQGTLVTVSSASTTAPSVFPLAPSCGSTSGSTVALACLVSGYFPEPVTVSWNSGSLTSGVHTFPSVLQSSGLYSLSSMVTVPSSRWPSETFTCNVAHPASKTKVDKPVPKRENGRVPRPPDCPKCPAPEMLGGPSVFIFPPKPKDTLLIARTPEVTCVVVALDPEDPEVQISWFVDGKQMQTAKTQPREEQFAGTYRVVSVLPIGHQDWLKGKQFTCKVNNKALPSPIERTISKARGQAHQPSVYVLPPSREELSKNTVSLTCLIKDFFPPDIDVEWQSNGQQEPESKYRTTPPQLDEDGSYFLYSKLSVDKSRWQRGDTFICAVMHEALHNHYTQESLSHSPGK light: DIVMTQTPLSLSVSLGEPASISCHASQNINVWLSWYRQKPGQIPQLLIYKASHLHTGVPDRFSGSGSGTDFTLRISRVEADDAGVYYCQQGQSWPLTFGQGTKVEIKRNDAQPAVYLFQPSPDQLHTGSASVVCLLNSFYPKDINVKWKVDGVIQDTGIQESVTEQDSKDSTYSLSSTLTMSSTEYLSHELYSCEITHKSLPSTLIKSFQRSECQRVD
–	no binding	can 2H9 IgGB ADCC (1068) VH4/VL3 (antibody, also called can2H9 VH4 IgGB ADCC (1068)/VL3; YZZ1068) heavy: EVQLVQSGGDLVKPGGSVRLSCVASGFNIKNTYMHWVRQAPGKGLQWIGRIAPANVDTKYAPKFQGKATISADTAKNTAYMQLNSLRAEDTAVYYCVLIYYDYDGDIDVWGQGTLVTVSSASTTAPSVFPLAPSCGSTSGSTVALACLVSGYFPEPVTVSWNSGSLTSGVHTFPSVLQSSGLYSLSSMVTVPSSRWPSETFTCNVAHPASKTKVDKPVPKRENGRVPRPPDCPKCPAPEMLGGASVFIFPPKPKDTLLIARTPEVTCVVVALDPEDPEVQISWFVDGKQMQTAKTQPREEQFAGTYRVVSVLPIGHQDWLKGKQFTCKVNNKGLASPIERTISKARGQAHQPSVYVLPPSREELSKNTVSLTCLIKDFFPPDIDVEWQSNGQQEPESKYRTTPPQLDEDGSYFLYSKLSVDKSRWQRGDTFICAVMHEALHNHYTQESLSHSPGK light: DIVMTQTPLSLSVSLGEPASISCHASQNINVWLSWYRQKPGQIPQLLIYKASHLHTGVPDRFSGSGSGTDFTLRISRVEADDAGVYYCQQGQSWPLTFGQGTKVEIKRNDAQPAVYLFQPSPDQLHTGSASVVCLLNSFYPKDINVKWKVDGVIQDTGIQESVTEQDSKDSTYSLSSTLTMSSTEYLSHELYSCEITHKSLPSTLIKSFQRSECQRVD
